Data published in paper PMC8115922 (Science Advances, 2021).

T1: SAMD1-WH(27-105) (Homo sapiens, UniProt Q6SPF0 27-105)
T1 sequence: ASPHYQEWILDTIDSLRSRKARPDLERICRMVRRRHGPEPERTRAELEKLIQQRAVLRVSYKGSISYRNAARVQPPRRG

B1: WT SAMD1-SAM (construct of the solution experiments not stated) (domain or fragment, human, UniProt Q6SPF0 462-530, looked up)
chain: WTVMDVVEYFTEAGFPEQATAFQEQEIDGKSLLLMQRTDVLTGLSIRLGPALKIYEHHIKVLQQGHFED
B2: 13-bp CpG DNA (dsDNA)
DNA 1: ACCTGCGCACCAT
DNA 2: ATGGTGCGCAGGT

Columns and labels:
SEC + native MS = target: the molecule itself; assay: SEC + native MS
SAMD1-WH(27-105) = target: T1, SAMD1-WH(27-105); assay: X-ray crystallography

| Binder | stoichiometry N (SEC + native MS) | binding result (SAMD1-WH(27-105)) |
| --- | --- | --- |
| B1 | 5 | – |
| B2 | – | binds |
